B1: angiopoietin 1 (protein, UniProt O08538 20-498, looked up)
Angiopoietin-1: SNQRRNPENGGRRYNRIQHGQCAYTFILPEHDGNCRESATEQYNTNALQRDAPHVEPDFSSQKLQHLEHVMENYTQWLQKLENYIVENMKSEMAQIQQNAVQNHTATMLEIGTSLLSQTAEQTRKLTDVETQVLNQTSRLEIQLLENSLSTYKLEKQLLQQTNEILKIHEKNSLLEHKILEMEGKHKEELDTLKEEKENLQGLVSRQTFIIQELEKQLSRATNNNSILQKQQLELMDTVHNLISLCTKEGVLLKGGKREEEKPFRDCADVYQAGFNKSGIYTIYFNNMPEPKKVFCNMDVNGGGWTVIQHREDGSLDFQRGWKEYKMGFGNPSGEYWLGNEFIFAITSQRQYMLRIELMDWEGNRAYSQYDRFHIGNEKQNYRLYLKGHTGTAGKQSSLILHGADFSTKDADNDNCMCKCALMLTGGWWFDACGPSNLNGMFYTAGQNHGKLNGIKWHYFKGPSYSLRSTTMMIRPLDF
modifications: adenovirus-expressed
notes: mouse-derived Ang-1 gene expressed from AdenoX adenovirus vector in vivo

What was measured:
Tie2 = molecular target: T1, Tie2 (Homo sapiens, UniProt Q02763); test: Western blotting of lymphatic endothelial cells (Tie2 phosphorylation); type: cell-based; details: Western blot of Tie2 and phosphorylated Tie2, DMSO control, compared with Ang-1
T1 construct: endogenous in cells; host or cells: primary human lymphatic endothelial cells from infant foreskin
Experimental: Lymphatic endothelial cells were isolated from human infant foreskin as CD31-positive, CD34-negative, CD45-negative cells (Non-Patent Document 6). The lymphatic endothelial cells were cultured in EBM-2 (Cambrex, Verviers, Belgium) supplemented with addition factors, and protein was extracted with Phosphosafe Extraction Reagent (Novagen, Madison, Wis.) in the presence of various drugs (Ang-1, cinnamon bark extract, Siberian Ginseng extract and syringaresinol). Cells supplemented with DMSO were prepared as a control.
Furthermore, the cinnamon bark extract and syringaresinol were prepared in the manner indicated below. The Siberian Ginseng extract (Ask Intercity) was obtained by extracting Siberian Ginseng root with 30% ethanol. This extract was confirmed to contain 1.01% by weight syringaresinol by HPLC. This extract was then dissolved with DMSO for use as each test sample. The total amount of protein was determined with the RC DC Protein Assay Kit (BIO-RAD, Hercules, Calif.), and detected by Western blotting in the manner described below. An equal amount of total protein was subjected to SDS-PAGE using 7.5% acrylamide gel (NPU-7.5L, ATTO, Japan), and expression of Tie2 and phosphorylated Tie2 protein was confirmed by staining with an ECL Kit using […] (Santa Cruz Biotechnology, Santa Cruz, Calif.).

lymphatic vessels = test: Lymph drainage assay (colloidal carbon injected into the auricle of mice infected with Ang-1 adenovirus); type: in vivo, mouse
Experimental: The auricles of 8-week-old mice were infected with adenovirus (1×10^9 ifu/mouse), in which mouse-derived angiopoietin-1 (Ang-1) gene was incorporated into an AdenoX vector, with a Hamilton syringe (Hamilton, Reno. NV). Mice were also infected with adenovirus incorporating only AdenoX vector as a control. 1 μl of colloidal carbon solution (Kamei Co., Ltd., Japan) was injected into the tip of the auricle with a Hamilton syringe followed by analysis of time-based changes in the flow of lymph. […] In addition, a visual assessment of changes in lymphatic vessel recovery function was also carried out, and comparisons were made by scoring to one of levels (5: all ink remaining in lymphatic vessels, 1: all ink recovered and no longer present in lymphatic vessels), the results of which are shown in FIG. 1.
In addition, after sacrificing the animals by anesthesia, the ears of the animals were simultaneously collected and crushed in liquid nitrogen followed by extraction of protein with Phosphosafe Extraction Reagent (Novagen, Madison, Wis.). The total amount of protein was determined with the RC DC Protein Assay Kit (BIO-RAD, Hercules, Calif.) and detected by Western blotting in the manner described below. […]

T1 sequence (Q02763 23-1124): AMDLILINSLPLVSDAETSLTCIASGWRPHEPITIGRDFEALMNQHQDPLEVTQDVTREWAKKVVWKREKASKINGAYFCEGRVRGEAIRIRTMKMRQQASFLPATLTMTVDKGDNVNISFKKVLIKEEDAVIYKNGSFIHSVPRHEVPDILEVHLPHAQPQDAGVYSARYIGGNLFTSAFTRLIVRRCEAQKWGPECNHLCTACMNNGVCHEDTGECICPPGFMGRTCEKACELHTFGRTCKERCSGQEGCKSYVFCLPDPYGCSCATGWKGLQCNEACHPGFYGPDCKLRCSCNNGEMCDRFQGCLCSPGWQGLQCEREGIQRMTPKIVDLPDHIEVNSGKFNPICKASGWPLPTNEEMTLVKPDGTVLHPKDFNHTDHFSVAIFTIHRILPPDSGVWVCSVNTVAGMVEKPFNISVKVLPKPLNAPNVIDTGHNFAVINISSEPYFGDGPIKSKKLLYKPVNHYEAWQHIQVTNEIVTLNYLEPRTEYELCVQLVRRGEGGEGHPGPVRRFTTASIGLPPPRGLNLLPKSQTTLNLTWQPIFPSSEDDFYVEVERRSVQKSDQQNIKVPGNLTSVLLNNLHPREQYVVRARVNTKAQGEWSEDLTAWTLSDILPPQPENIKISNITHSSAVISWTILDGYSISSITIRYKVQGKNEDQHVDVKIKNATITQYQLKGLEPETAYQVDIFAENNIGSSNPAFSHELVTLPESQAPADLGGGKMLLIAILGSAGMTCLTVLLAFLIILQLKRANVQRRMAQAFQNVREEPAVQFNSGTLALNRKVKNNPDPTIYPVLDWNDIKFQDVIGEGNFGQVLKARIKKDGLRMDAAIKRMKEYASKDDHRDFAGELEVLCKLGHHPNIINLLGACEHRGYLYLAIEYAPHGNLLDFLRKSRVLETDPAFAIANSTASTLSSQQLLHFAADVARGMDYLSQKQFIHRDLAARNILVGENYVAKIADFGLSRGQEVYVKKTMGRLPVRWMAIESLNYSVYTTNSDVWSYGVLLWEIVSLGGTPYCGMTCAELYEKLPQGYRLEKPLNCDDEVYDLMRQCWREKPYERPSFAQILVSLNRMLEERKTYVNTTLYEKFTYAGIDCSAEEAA

Row | Molecule | Tie2 phosphorylation (activation) (Tie2) | lymphatic vessel recovery function (time-based changes in the flow of lymph) (lymphatic vessels; ears of mice highly expressing Ang1 via adenovirus, 1 μl colloidal carbon into tip of auricle, vs AdenoX vector control, data not shown) | lymphatic vessel recovery function, visual assessment score (5: all ink remaining, 1: all ink recovered) (lymphatic vessels; mouse auricle, Ang-1 adenovirus vs AdenoX vector control, FIG. 1)
1 | COc1cc(C2OCC3C(c4cc(OC)c(O)c(OC)c4)OCC23)cc(OC)c1O (stereo not drawn) [syringaresinol, Syringaresinol] | confirmed to activate Tie2 in the same manner as Ang-1 | – | –
2 | B1 | – | promoted | remarkable promotion of lymphatic vessel recovery function
